The values that follow come from article PMC5063126.

The target of one assay is TMR-BID BH3. Kind of assay: fluorescence polarisation; fluorescence anisotropy; Bcl-xL titrated into TMR-BID BH3 (5 nM) in sodium phosphate buffer (50 mM, pH 7.5) with sodium chloride (10 mM), 15 °C; fit to the Langmuir isotherm, apparent dissociation constant, at least three independent curves averaged.
The next assay concerns the target Bcl-xL (UniProt Q07817). Description: not stated; fluorescently labelled peptide with Bcl-xL; data in Table S4.

Ends that are not written are not given here. fluorophore = not defined here

On to “Bcl-xL (from UniProt Q07817-1 1-209) (domain or fragment)”, for which the Kd with TMR-BID BH3 was determined as 27 nM.

On to DC(fluorophore)AEDIGVNIARHLAQVGDSIDRSI (reading uncertain; also: fluorophore not named) [LOV-BID peptide], for which the Kd in the assay with Bcl-xL turned out to be 46 nM.
